Tested on: MS2 coat protein
Test: apparent KD of MS2 coat protein; designed switch direction (-1 OFF switch, 1 ON switch): -1; higher = weaker reporter binding
Procedure, shortened: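 Three titration conditions were used: no input, 200 uM small-molecule ligand, and an oligonucleotide input. In each, SNAP-549-labelled MS2 coat protein was raised from 0.7 or 1.5 nM, doubling, to 3 µM over designed RNA switches transcribed on Illumina chips by stalled E. coli RNA polymerase. Curve fits of normalised cluster fluorescence gave values whose per-design median over clusters is the apparent KD.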

[1] = input ligand: microRNA oligo, concentration not stated
[2] = Eterna round: R95, input ligand: FMN 200 uM
[3] = Eterna round: R95, input ligand: microRNA oligo, concentration not stated
[4] = Eterna round: R95, input ligand: none

Sequence	apparent KD of MS2 coat protein (input ligand: FMN 200 uM) [nM]	apparent KD of MS2 coat protein [1] [nM]	apparent KD of MS2 coat protein (input ligand: none) [nM]	apparent KD of MS2 coat protein [3] [nM]	also measured
UAUUGUUUUUUUUUAAAUUACAUGAGGAUCACCCAUGUUUUUUUUUUUUUGGUGAUUAUUUUUUGUCUUUUUUUUUU [Jieuxbot 037 - Jieux - Sensor v2, turn-off variant] (Eterna round: R96, puzzle: Sensor v2, turn-off variant)	58.5	69	43.3		
CUCUUGUCAGGAUAUCAACGCCGCCCACACAGGCGGCGAAAUGAGAAGGGACAUGAGGAUCACCCAUGUUAAAA [Tiaonbi] (puzzle: Exclusion 4)				86.1	apparent KD of MS2 coat protein [2]: 24.3 nM; apparent KD of MS2 coat protein [4]: 168 nM
UCGACGUCGUCAGGAUAUAGUUUUAAUGUCAUGCUUUUGUUCGUACAUGAGGAUCACCCAUGUGGCUAGAAGGGACUAAAGAUU [JR_ExcNG2_Sub014] (Eterna round: R96, puzzle: Exclusion NG 2)	22.9	27	18.8		
AAUAACAGAGGAUAUACUAUUUUAUGUGUUUAUUGUUUUAAACAUGAGGAUCACCCAUGUAGAAGGCUGAAUAA [JMF 16] (puzzle: Exclusion 2)				26.8	
AUACCACGAGGAUAUCGUCUAUAAUACAUGAGGAUCACCCAUGUUAUAUAUGUAAUGUUUCGAGAAGGCGUGUUUU [JR_E5_Sub082] (puzzle: Exclusion 5)				14.7	
UAAAGCGUAGGAUAUACAUUCAUGAGCACCACCCGGUGCACACAUGAGGAUCACCCAUGUAGAAGGAUGCUACG [Eternabot (Original) Solution 49] (Eterna round: R97, puzzle: Exclusion 2)	14.6		17.6		
GUUGGUAAGUCAGGAUAUCCCUGUAAUGGCAGCGGAGAAGGGACAUGAGGAUCACCCAUGUGAACCUCCGGCGGGUAAACCCGC [Issoange] (Eterna round: R96, puzzle: Exclusion NG 1)	103	20.5	37.1		
UCCACAUGAGGAUCACCCAUGUAAGGUGAGUAAAAGAAGAGGCAGGAUAUUGAAGCGACCUCGCCCAAGAAGGGCCUCACCAAA [Eternabot solution 11] (Eterna round: R96, puzzle: Exclusion NG 3)	72.2	44.8	60.6		
UAUAUAUAGUAAGGAUAUGUAUAUAUUUUAUUAACAGAAGGUACUGACAUGAGGAUCACCCAUGUUUUAGUGUGGGCAUGUAGA [JMF's solution 69] (Eterna round: R96, puzzle: Exclusion NG 1)		55.2			
GUAGAGUAAGGAUAUACAGAAUAGGAUAGAAUGGUUAGAAUGUAGAAGGUACAUGAGGAUCACCCAUGUAAUGU [Excluse me!!!! 8 - Jieux - Exclusion 4] (puzzle: Exclusion 4)				19.7	
GUCACCUCGGUGACAAAGCACAUGAGGAUCACCCAUGUAUGUGCUUGGAAACAAGCAUUUUGUUCGUCUUAUAAGAA [same principle] (Eterna round: R96, puzzle: Sensor v2, turn-off variant)	22.7	95.4	21.6		
GAGUACUGAGGAUAUACAUGAGGAUCACCCAUGUGUUCCAGCUAGGAAACUAGCAAAAGUAGAAGGCAGUACUG [salish99_ex3_r3_084] (Eterna round: R96, puzzle: Exclusion 3)	311	19.3	23.2		
CUUUUGUGAGGAUAUUGGUAGUAAAUAAAUAAAAUUAUUACCGAGAAGGUACAUGAGGAUCACCCAUGUUCCUC [Salish 062 v18] (Eterna round: R97, puzzle: Exclusion 4)	32.1		18.2		
AGGUCCUUCUGGAGACAUGAGGAUCACCCAUGUCGGGUCAGCGAGGAUAUCGGUUAAUAAUGUGACGAGAAGGCGCGGACCGAU [Ex NG3 #56] (Eterna round: R96, puzzle: Exclusion NG 3)	104	19.5	24.9		
GGAUCGUAUGUCAGGAUAUACCACUGGAUACAGUGGUAGAAGGGACAUGAGGAUCACCCAUGUCUUAUCGAUCC [Fiskers BMX 4 - 52] (puzzle: Brourd's mod of Exclusion 4)				14.3	
GCAGCGUAUGUAGGAUAUCGGUCAGUUUCUGAUCGAGAAGGACAUGAGGAUCACCCAUGUGCGGUCAUGCGUGAGCAUGGCUGC [JL ENG1 3.74] (Eterna round: R96, puzzle: Exclusion NG 1)	268	31.3	41.2		
AAGUAGGCAGGAUAUACAUGAGGAUCACCCAUGUGCCCAUGAAAGGUACUUUCGAAAGGUAGAAGGGCCUACAA [ChP 13.04.2015 #5] (puzzle: Exclusion 3)				14.6	
CUGUGUAGACAGGAUAUGCUGUACAAAAGUACAGCAGAAGGGUCUACAUGAGGAUCACCCAUGUGUACCUCAUG [)mei Ex6 B26] (Eterna round: R97, puzzle: Exclusion 6)	21.2		106		

Sequence	apparent KD of MS2 coat protein (input ligand: FMN 200 uM) [nM]	apparent KD of MS2 coat protein [1] [nM]	apparent KD of MS2 coat protein (input ligand: none) [nM]	apparent KD of MS2 coat protein [3] [nM]	also measured
CAUCAGGGAGGAUAUACAUAACUAAAAGGCUAGCAGUCCGUACAUGAGGAUCACCCAUGUAGAAGGCCCGAGUA [EX2 B.6] (Eterna round: R97, puzzle: Exclusion 2)	46.9		20		
CCUCAGUGAGGAUAUGGUAGACACAAUCGGGAUUGAGAAGGCCAGAAGGUACAUGAGGAUCACCCAUGUAAUCA [Eternabot (L2) Solution 58] (Eterna round: R97, puzzle: Exclusion 4)	27.2		21.9		
CAUGAUUGGCGAGGAUAUUGAUCUAGUUGGCGACGAGAAGGCGCCUGUCACAUGAGGAUCACCCAUGUGUGUCUGGUGAAUGAG [Ex NG1 #86] (Eterna round: R96, puzzle: Exclusion NG 1)	82.5	48.4	63.3		
ACAUUCAGAGGAUAUGCGCAUAGAUAAGACUUUGUUUCUUAACAUGAGGAUCACCCAUGUAGAAGGCUGUACCC [Ex2 #66] (Eterna round: R97, puzzle: Exclusion 2)	26.6		20.9		
UAUGGUAAAGUCAGGAUAUACGUACGUCGUUCUAGGUAGAAGGGACAUGAGGAUCACCCAUGUAUGAUAGUAAA [Ex4 #35] (Eterna round: R97, puzzle: Brourd's mod of Exclusion 4)	36.1		41.6		
UUUGUGUCAGGAUAUGAGUCGUAGAACAAUAGUACUACGUCUCAGAAGGGACAUGAGGAUCACCCAUGUGCCUC [Fiskers Ex 4 Super Stable 44 mod 27] (puzzle: Exclusion 4)				34.9	
GCCGAUUAAGUGAGGAUAUACCUAUGGAUACAUAGGUAGAAGGCACAUGAGGAUCACCCAUGUUCCUUAACGGC [Fiskers BMX 4 - 7] (puzzle: Brourd's mod of Exclusion 4)				10.5	
ACAUGAGGAUCACCCAUGUGCACGUAAUGGCUCAUGUAGAGUGAGGAUAUGCGUGGCGAACUCGCGCAGAAGGCACAAGACUGG [Deportation 19 - Jieux - Exclusion NG 3] (Eterna round: R96, puzzle: Exclusion NG 3)	88.8	65.9	82.5		
CUUUUGUGAGGAUAUUAGUAGUAAAUAAAUAAUAUUACUACUGAGAAGGCACAUGAGGAUCACCCAUGUUCCUC [salish99_ex4_r3_059] (puzzle: Exclusion 4)				38.8	
AGUAGUUGUUUCCGUUCUUACAUGAGGAUCACCCAUGUUUCUUGUCGUGCUCGCGUUGCUCGUCAGACUACCUGUUG [salish99_TOv1_r3_062] (puzzle: Sensor v3, turn-off variant 1)				88.6	apparent KD of MS2 coat protein [2]: 69.8 nM; apparent KD of MS2 coat protein [4]: 105 nM
CCUCUACAUGAGGAUCACCCAUGUUAGGAUAUGCCGGCCGACCUCGGGUGUGUAAUACGCAGAAGGAACGUUAC [Eternabot (Original) Solution 49] (Eterna round: R97, puzzle: Exclusion 1)	835		2390		
AGCUAGUCAGGAUAUUCUAUUAAUUACAUGAGGAUCACCCAUGUGAAUGGACGAGGGUGUGAAGAAGGGACUAGCG [Omei Ex5 A17] (Eterna round: R97, puzzle: Exclusion 5)	94.4		226		
AUACUCGAAGGAUAUGUGUAAGAGUACAUGAGGAUCACCCAUGUCCUAAGCACUUGGACGGCAGAAGGUCGACUGU [Eternabot (L2) Solution 36] (Eterna round: R97, puzzle: Exclusion 5)	57.7		25.1		
AAGUACCGUCACGAUAGUGAUGGUACAGCAAGCAAAUGUACAUGAGGAUCACCCAUGUCCUCUUUUGCUCGUCUUAU [Sensor 3 - 98] (puzzle: Sensor v3, turn-off variant 2)				31.1	apparent KD of MS2 coat protein [2]: 49.1 nM; apparent KD of MS2 coat protein [4]: 53.2 nM
GUGUACCGAGGAUAUGCUGGAAUCUAGCGAAGCUAGGUUCCACAUGAGGAUCACCCAUGUAGAAGGUGGUACAC [Dot plot directed A v7] (puzzle: Exclusion 2)				55.5	
GCCGCUCACGAGGAUAUGGUGGAAAAGCCUUUGCUAGAAGGCGUGACAUGAGGAUCACCCAUGUAGGCACAUGA [Eternabot (L1) Solution 85] (Eterna round: R97, puzzle: Exclusion 6)	24.9		30.4		
AAUUUACAUGAGGAUCACCCAUGUCAGGAUAUGGUUUUAUUUUUUUCUUUUCUUGAUUCCAGAAGGGACAGUUA (puzzle: Exclusion 1)				81.6	

From the supplement of paper PMC9170038
